Reference: US20240409638A1 (AVACTA LIFE SCIENCES, published 2024)
Values joined by “and” are separate entries in the source; they are usually repeats but may differ in a detail not shown here. Equal entries are not always repeated. One block for each binder: values may come before it.

Legend:
[1] = target: T1, human PD-L1-Fc (R&D Systems) (human, UniProt Q9NZQ7 19-239); assay: SPR (Biacore) kinetics: human PD-L1-Fc immobilised on a CM5 chip, AFFIMER as analyte
T1 construct: Bought reagent; also called huPD-L1-Fc; huPD-L1; not shown: Fc part of the bought fusion

[2] = target: T1, human PD-L1-Fc (R&D Systems); assay: SPR (Biacore) kinetics: human PD-L1-Fc immobilised on a CM5 chip, AFFIMER as analyte (column KD (pM), the same fit as the KD (M) column)
[3] = target: T2, human serum albumin (HSA) (human, UniProt P02768 25-609); assay: SPR, Biacore, HSA on CM5, pH 7.4; ILF XT format
T2 construct: The assays used bought HSA (Sigma #A37812 in the SPR work); also called HuSA
Procedure: (§1) For the HSA binding kinetic analysis, HSA (Sigma #A37812) was immobilized on a CM5 chip surface using amine coupling in 10 mM sodium acetate (pH 5.0) (Cytvia). […] The chip surface was regenerated with 3 mM NaOH for 20 seconds at a flow rate of 20 μl/min. The kinetic data was blank subtracted and fit to a 1:1 Langmuir binding model (BIAcore evaluation software; Cytiva).
(§2) Protein was produced from Escherichia coli and characterized as described in Example 1. […] Kinetic analysis was carried out as described in Example 2.

[4] = target: T2, human serum albumin (HSA); assay: SPR (Biacore) kinetics: HSA immobilised on a CM5 chip, AFFIMER as analyte, pH 7.4
Procedure: as §1, §2

[5] = target: T1, human PD-L1-Fc (R&D Systems); assay: SPR (Biacore 8K): human PD-L1-Fc amine-coupled on a CM5 chip, AFFIMER as analyte
[6] = target: T2, human serum albumin (HSA); assay: SPR, Biacore, HSA amine-coupled on CM5; mammalian-produced format
Procedure: as §1

[7] = target: T3, PD-L1 on cells (NCI-H441 cells; aAPC PD-L1/CHO-K1 cells, Promega) (human, UniProt Q9NZQ7 19-290); assay: cell-based or functional assay
[8] = target: T4, murine serum albumin (MSA) (murine, UniProt P07724 25-608); assay: SPR (Biacore): immobilized ligand MSA (Sigma # A3559), AFFIMER as analyte, pH 7.0 by the legend
T4 construct: Bought reagent

[9] = target: T1, human PD-L1-Fc (R&D Systems); assay: human PD-L1-Fc binding ELISA: huPD-L1-Fc coated, anti-cystatin A detection
[10] = target: T2, human serum albumin (HSA); assay: SPR (Biacore): immobilized ligand HSA (Sigma # A3782), AFFIMER as analyte, pH 7.0 by the legend
Procedure: as §1

[11] = target: T4, murine serum albumin (MSA); assay: SPR, Biacore, MSA amine-coupled on CM5; mammalian-produced format
[12] = target: T2, human serum albumin (HSA); assay: HSA binding ELISA: HSA coated, anti-cystatin A detection
[13] = target: T2, human serum albumin (HSA); assay: HSA binding ELISA: HSA coated, bound AFFIMER detected with biotinylated anti-cystatin A antibody and streptavidin-HRP
Procedure: (§3) Plates were washed and AFFIMER® polypeptides were detected using streptavidin-HRP for 30 min. After the last washing step, the TMB substrate was added for the development of the experiment and plates were read at 450 nm. The EC₅₀ was then calculated using the interpolated non-linear four-parameters standard curve.

[14] = target: T1, human PD-L1-Fc (R&D Systems); assay: huPD-L1-Fc binding ELISA
[15] = target: T3, PD-L1 on cells (NCI-H441 cells; aAPC …); assay: cell-based or functional assay; remark: listed apart in the source
[16] = target: T1, human PD-L1-Fc (R&D Systems); assay: SPR (Biacore 8K): human PD-L1-Fc amine-coupled on a CM5 chip, AFFIMER as analyte, 1:1 Langmuir fit
[17] = target: T1, human PD-L1-Fc (R&D Systems); assay: PD-L1/PD-1 competition ELISA (binding inhibition %): human PD-1-Fc coated, AFFIMER preincubated with huPD-L1-Fc at its EC80, bound PD-L1 detected; blocked ligand: human PD-1-Fc. The table column is headed 'EC50 (nM)'; the text calls the values IC50
Procedure: Plates were washed two times with washing buffer (PBS, Tween 20 0.1%) with a plate washer and saturated with Casein 5% (Sigma) in PBS for 90 minutes at room temperature (25±1° C.). […] Plates were washed 3 times as described previously. […] Plates were washed 3 times as described previously and Streptavidin-HRP was added, and the plates were incubated for 30 minutes at room temperature (25±1° C.). Plates were washed a last time and the substrate (TMB; Pierce Thermo-Scientific) was added to the plate. After 10 minutes, the reaction was stopped using an acidic solution and the plates were read at absorbance 450-630 nm. The IC₅₀ was then calculated using the interpolated non-linear four-parameters standard curve.

[18] = target: T3, PD-L1 on cells (NCI-H441 cells; aAPC …); assay: flow cytometry, % positive cells, aAPC PD-L1/CHO-K1 cells (overexpressing PD-L1)
Procedure: (§4) Lung cancer cell line (NCI-H441 (ATCC), CHO-K1 recombinant cell line overexpressing PD-L1 aAPC/CHO-K1 (Promega J1252)) and a negative cell line (CHO-K1, ATCC) were used to assess AFFIMER® agent binding capacity to PD-L1 by flow cytometry.
(§5) Briefly, 50 000 cells were added to each well of a 96-well microplate. After this step and each subsequent step, cells were washed twice with PBS+2 mM EDTA using 350g centrifugation for 3 minutes at 4° C. All steps were performed at 4° C. using assay buffer comprising 5% FBS, 2 mM EDTA and 0.05% sodium azide in PBS unless otherwise stated. Independent AFFIMER® agent dilutions were prepared in duplicate and added to the plates. […] Fixation was performed for 10 minutes at 4° C. with Fixation Buffer (Bio-techne FC004). Cells were resuspended in 100 ul assay buffer prior the acquisition of the data. 5000 events were collected by Flow cytometry (Millipore Guava 12HT). The results were gated on live cells and singlets (SSC-H vs SSC-A). The percentage of cells expressing PD-L1 bound by the AFFIMER® agent (positive cells) was determined by using as negative control (background) where the wells were stained with the AF488 conjugated secondary antibody only without AFFIMER® agent. The average of the duplicate wells was used to calculate EC₅₀ using a four-parameter non-linear regression curve fit using Graphpad Prism software. […]

[19] = target: T1, human PD-L1-Fc (R&D Systems); assay: human PD-L1-Fc binding ELISA: huPD-L1-Fc coated, anti-cystatin A detection, with 10 µM HSA in the assay buffer
Procedure: as §3

[20] = target: T3, PD-L1 on cells (NCI-H441 cells; aAPC …); assay: flow cytometry on NCI-H441 cells endogenously expressing PD-L1, anti-cystatin A antibody and AF488 secondary antibody, % positive cells
[21] = target: T2, human serum albumin (HSA); assay: SPR (Biacore 8K): HSA amine-coupled on a CM5 chip, AFFIMER as analyte, pH 7.4, 1:1 Langmuir fit
Procedure: as §1

[22] = target: T2, human serum albumin (HSA); assay: SPR (Biacore 8K): HSA amine-coupled on a CM5 chip, AFFIMER as analyte, pH 6.0, 1:1 Langmuir fit
Procedure: as §1

[23] = target: T3, PD-L1 on cells (NCI-H441 cells; aAPC …); assay: flow cytometry, % positive cells, NCI-H441 cells (endogenous PD-L1)
Procedure: as §4, §5

[24] = target: T1, human PD-L1-Fc (R&D Systems); assay: human PD-L1-Fc/HSA bridging ELISA: huPD-L1-Fc coated, AFFIMER titrated with 10 µM HSA, detection with HRP-conjugated anti-HSA antibody (the signal needs PD-L1 and HSA bound at once)
Procedure: After saturation with 5% casein/PBS buffer, the plates were washed and a dilution of AFFIMER® polypeptides or controls was incubated with HSA at a final concentration of 10 μM for 90 minutes. Plates were then washed, and a […] polyclonal antibody, anti-HSA (HRP-conjugated) (Abcam), was added for 90 minutes. After a last washing step, TMB was added for the development of the experiment and the plates were read at 450 nm. The EC₅₀ was then calculated using the interpolated non-linear four-parameters standard curve (FIG. 10).

[25] = target: T1, human PD-L1-Fc (R&D Systems); assay: human PD-L1-Fc binding ELISA: huPD-L1-Fc coated, anti-cystatin A detection, no HSA in the assay buffer
Procedure: as §3

T2 sequence (P02768 25-609): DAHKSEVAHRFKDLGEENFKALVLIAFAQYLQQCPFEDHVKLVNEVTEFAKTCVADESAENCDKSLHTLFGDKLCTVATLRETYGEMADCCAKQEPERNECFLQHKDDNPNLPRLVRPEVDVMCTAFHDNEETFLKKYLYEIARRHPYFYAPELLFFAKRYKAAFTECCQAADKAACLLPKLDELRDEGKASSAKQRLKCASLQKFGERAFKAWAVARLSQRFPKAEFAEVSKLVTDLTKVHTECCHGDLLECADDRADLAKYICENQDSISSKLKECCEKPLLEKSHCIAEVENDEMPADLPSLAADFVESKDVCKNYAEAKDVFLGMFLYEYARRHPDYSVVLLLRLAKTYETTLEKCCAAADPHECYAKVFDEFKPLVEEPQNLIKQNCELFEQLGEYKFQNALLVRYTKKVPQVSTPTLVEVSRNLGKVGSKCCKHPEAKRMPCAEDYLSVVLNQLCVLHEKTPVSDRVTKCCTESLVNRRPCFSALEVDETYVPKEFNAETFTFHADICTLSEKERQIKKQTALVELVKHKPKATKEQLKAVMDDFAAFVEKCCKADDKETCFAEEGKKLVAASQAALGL
T1 sequence (Q9NZQ7 19-239 limits assumed): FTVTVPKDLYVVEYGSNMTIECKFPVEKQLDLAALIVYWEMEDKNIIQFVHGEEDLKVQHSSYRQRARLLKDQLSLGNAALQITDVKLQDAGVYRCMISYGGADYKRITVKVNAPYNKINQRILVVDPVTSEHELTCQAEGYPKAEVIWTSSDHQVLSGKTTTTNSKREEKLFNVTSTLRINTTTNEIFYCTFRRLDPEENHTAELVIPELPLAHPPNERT
T3 sequence (Q9NZQ7 19-290): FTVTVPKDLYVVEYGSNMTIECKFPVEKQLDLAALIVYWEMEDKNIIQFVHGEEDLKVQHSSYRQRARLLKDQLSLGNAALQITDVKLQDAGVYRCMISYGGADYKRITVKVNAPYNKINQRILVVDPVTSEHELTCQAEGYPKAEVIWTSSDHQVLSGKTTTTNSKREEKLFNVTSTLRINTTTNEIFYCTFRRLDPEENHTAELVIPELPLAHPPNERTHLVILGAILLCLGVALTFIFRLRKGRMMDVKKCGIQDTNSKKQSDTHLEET

Kd [1]: 0.109 nM
koff [1]: 0.00015 s⁻¹
kon [1]: 1.37e+06 M⁻¹ s⁻¹
Kd [2]: 0.11 nM
Kd [3]: 7.04 nM
Kd [4]: 704 nM
koff [4]: 0.00828 s⁻¹
kon [4]: 11800 M⁻¹ s⁻¹
B1: Clone 80 XT62 (designed binder)
chain: MIPGGLSEAKPATPEIQEIVDKVKPQLEEKTGETYGKLEAVQYKTQVVRRKHFPQWPGTNYYIKVRAGDNKYMHLKVFKSLDLQPREVFQEDLVLTGYQVDKNKDDELTGFAEAAAKEAAAKEAAAKEAAAKEAAAKEAAAKMIPGGLSEAKPATPEIQEIVDKVKPQLEEKTGETYGKLEAVQYKTQVVRRKHFPQWPGTNYYIKVRAGDNKYMHLKVFKSLDLQPREVFQEDLVLTGYQVDKNKDDELTGFAEAAAKEAAAKEAAAKEAAAKEAAAKEAAAKMIPRGLSEAKPATPEIQEIVDKVKPQLEEKTNETYGKLEAVQYKTQVLADWWQAKWPHSTNYYIKVRAGDNKYMHLKVFNGPYKVHQSSGGADRVLTGYQVDKNKDDELTGF
notes: Clone 80 dimer with HSA-18 at the C-terminus; Made in E. coli; No tag is stated for this construct

Kd [5]: 0.0864 nM
koff [5]: 8.41e-05 s⁻¹
kon [5]: 974000 M⁻¹ s⁻¹
Kd [6]: 15.5 nM
IC50 of PD-1/PD-L1 blockade (% of inhibition, Promega NFAT-luciferase reporter cells) [7]: 57.9 nM
koff [8]: 0.0741 s⁻¹
kon [8]: 179000 M⁻¹ s⁻¹
EC50 [9]: 0.02 nM
koff [10]: 0.00641 s⁻¹
kon [10]: 412000 M⁻¹ s⁻¹
Kd [11]: 413 nM
EC50 [12]: 2.78 nM
B2: Clone 80 XT38 (mammalian-produced anti-PD-L1 AFFIMER® ILF dimer XT) (designed binder)
chain: MIPGGLSEAKPATPEIQEIVDKVKPQLEEKTGETYGKLEAVQYKTQVVRRKHFPQWPGTNYYIKVRAGDNKYMHLKVFKSLDLQPREVFQEDLVLTGYQVDKNKDDELTGFAEAAAKEAAAKEAAAKEAAAKEAAAKEAAAKMIPGGLSEAKPATPEIQEIVDKVKPQLEEKTGETYGKLEAVQYKTQVVRRKHFPQWPGTNYYIKVRAGDNKYMHLKVFKSLDLQPREVFQEDLVLTGYQVDKNKDDELTGFAEAAAKEAAAKEAAAKEAAAKEAAAKEAAAKMIPRGLSEAKPATPEIQEIVDKVKPQLEEKTNETYGKLEAVQYKTQVLANFFQRRWPGSTNYYIKVRAGDNKYMHLKVFNGPWKFRNTDRGADRVLTGYQVDKNKDDELTGF
notes: Same trimeric ILF format as Clone 80 XT35, expressed in HEK (Expi293F) cells

binding result [13]: no binding
EC50 [14]: 0.2 nM
EC50 [9]: 0.21 nM
half-maximal concentration of PD-1/PD-L1 blockade (% of inhibition, NFAT-luciferase reporter cells; IC50) [15]: 27.9 nM
Kd [16]: 0.449 nM
IC50 [17]: 1.63 nM
B3: Clone 80 (monomeric anti-PD-L1 AFFIMER® polypeptide) (designed binder)
chain: MIPGGLSEAKPATPEIQEIVDKVKPQLEEKTGETYGKLEAVQYKTQVVRRKHFPQWPGTNYYIKVRAGDNKYMHLKVFKSLDLQPREVFQEDLVLTGYQVDKNKDDELTGF
notes: Engineered Stefin A variant; also called anti-PD-L1 type I AFFIMER® polypeptide

EC50 [18]: 0.1 nM
EC50 [13]: 0.02 nM
EC50 [19]: 0.03 nM
EC50 (read off the curve) [20]: ~1 nM
Kd [21]: 5.01 nM
koff [21]: 0.00364 s⁻¹
kon [21]: 727000 M⁻¹ s⁻¹
Kd [22]: 3.36 nM
koff [22]: 0.00271 s⁻¹
kon [22]: 808000 M⁻¹ s⁻¹
EC50 [23]: 0.64 nM and 1.28 nM
half-maximal concentration of PD-1/PD-L1 blockade (% of inhibition, NFAT-luciferase reporter cells; IC50) [15]: 105 nM
EC50 [24]: 0.56 nM
Kd [16]: 0.224 nM
IC50 [17]: 2.3 nM
EC50 [25]: 0.02 nM
B4: Clone 80 XT34 (anti-PD-L1 type III AFFIMER® XT in-line fusion monomer XT) (designed binder)
chain: MIPGGLSEAKPATPEIQEIVDKVKPQLEEKTGETYGKLEAVQYKTQVVRRKHFPQWPGTNYYIKVRAGDNKYMHLKVFKSLDLQPREVFQEDLVLTGYQVDKNKDDELTGFAEAAAKEAAAKEAAAKEAAAKEAAAKEAAAKMIPRGLSEAKPATPEIQEIVDKVKPQLEEKTNETYGKLEAVQYKTQVLANFFQRRWPGSTNYYIKVRAGDNKYMHLKVFNGPWKFRNTDRGADRVLTGYQVDKNKDDELTGFHHHHHH
notes: Made in E. coli; LC/MS found a +42-43 Da species, assigned as acetylated; also called XT34_1; XT34_2
